Test: yeast display, Sf9 membrane polyspecificity reagent, FACS + sequencing; frameworks hold sequencing errors
Method in brief: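 In a synthetic yeast display library (Saccharomyces cerevisiae BJ5465), nanobody expression was induced with galactose for 36–48 hours. FACS gates were set low and high (top ~1%) using anti-HA fluorescence for expression and streptavidin fluorescence for binding of the Sf9 membrane reagent. Each polyreactivity label is drawn from the gate of origin.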

Row | Sequence | polyreactivity (PSR sort gate)
1 | QVQLVESGGGLVQAGGSLRLSCADSGFIFTAYAMGWYRQAPGKERELVAAISRSGGRTYYADSVKGRFTISRDNAKNTVYLQMNSLKPEDTAVYYCNADFHSGGGYWGQGTQVTLSS | high polyreactivity
2 | QDQIVESGGGLVQAGGSLRLSCAASGSIFVIKAMGWYRQAPGKERELVASIRGRTGSTNYADSVKGRFTISRDNAKNTVYLQMNSLKPVDTAVYYGAADRKGPFDYWGLGTQVTVSS | high polyreactivity
3 | QVQLVESGGGLVQAGGSLRLICAASGRILRYYAMGWYRQAPGKERELVASISRGGSTYYADSVKGRFTISRDNAKNTFYLQMNSLKPEDTAVYYCAKSVTGWRGLWYTPRNYYWGQGTQVTVSS | high polyreactivity
4 | QVQLVESGGGLVQAGGSLRLSCADSGGILFNYDMGWYRPAPGKERELVAAISRRGGTTYYADSVKGRFTISRDNAKNTVYLQMNSLKPEDTAVYYCAAYIYYSYYARVGYGDGNGYDYWGQGTQVTVSS | high polyreactivity
5 | QVQLVESGGGLVQAGGSLRLSCAASGSIFVYYTMGWYRQAPGKERELVAAISISGTSTYYADSVKGRFTNSRDNAKNTVYLQMNSLKPEDTAVYYCAADTYYGEDYWGQGTQVTVSS | low polyreactivity
6 | QVQLVESGGCLVQAGGRLRLSCAASGRIFHDNGMGWYRQAPGKERELVAAISRGGSTYYADSVKGRFTISRDNAKNTVYLQMNSRKPEDTAVYYCNVDSFRYRHTGYCDTRYGYWGQGTQVTVSS | high polyreactivity
7 | QVQLVESGGGLVQAGGSLRLSCAASGSTFDWYAMGWYRQAPGKERELVARIRWSGGSTYYADSVKGRFTISRDNAKNTVYLQMNSLKPEDTAVYYCAARTQTWPQYGYWGQGTQVTVSS | high polyreactivity
8 | QVQLVESGGGLVQAGGSLRLSCAASGSTFTSYAMGWYRQAPGKERELVAAISKSGGSTNYADSVKGRFTISRDNAKNTVYLQMNSLKPEDTAVYYCAALGIGSYRRYSGYDYWGQGTQVTVSS | low polyreactivity
9 | QVQLEESGGGLVQAGGSLRLSCAASGRIHVYTMGWSRQAPGKERELVATITWSGTSTNYADSVKGRFTISRDNAKNTVYFQMNSLKPEDTAVYYCAADISGVLSVSNVRGFDYWGQGTQVTVSS | low polyreactivity
10 | QVQLVESGGGLVQAGGSLRLSCAASGFTFDINTMGWYRQAPGKERELVAAITYSGGSTYYADSVKGRFTISRDNAKNTVYLQMNSLKPEDTAVYYCATTWYFVASWYVAIYDYWGQGTQVTVSS | low polyreactivity
11 | QVQLVESGGGLVQAGGSLRLSCAASGRIFGFYVMGWYRQAPGKERELVAAISSRGGSTYYADSVKGRFTISRDNAKNTVYLQMNSLKPEDTAVYYCAASVYREYYDNDDYWGQGTQVTVSS | high polyreactivity
12 | QVQLVESGGGLVQAGGSLRLSCAASGRTFSANTMGWYRQAPGKERELVAAISKSGGSTYYADSVKGRFTISRDNAKNTVYLQMNSLKPEDTAVYYCAAARNVYRGRVYWGRYDYWGQGTQVTVSS | high polyreactivity
13 | QVQLVESGGGLVHAGGSLRLSCAASGFTFGYYALGWYRQAPGKERELVASISRSGGSTNYADSVKGRFTISRDNAKYTVYFQMNRLKPEDTAVYYCNKRVNTYRSGSRRYDYWGQGTQVTVSS | high polyreactivity
14 | QVQLVESGGGLVQAGGSLRLSCAASGSIFKYYAMGWYRQAPGKERELVAAISSTGGSTYYAHSLKGRFTISRDNANYTVYLQMNSLKTEDTAVYYCNTTYIWKNYDYWGQGTQVTVSS | high polyreactivity
15 | QVQLVESGGGLVQAGGSLRLSCAASGSTFYAYAMGWYSQAPGKERELVAAITRSGGSTYYADSVKGRFTISRDNAKNTVYLQMNSLKPEDTDVYYCNKYGYKGGVGYDYWGQGTQVTLSS | high polyreactivity
16 | QVKLVESGGGLVKAGGRLRLSCAASGSTFRKYTMGWYRQAPWKERELVAAITYRGDRTYYADSVKGRFTISRDNAKNNVYLQMNSLKQEDTAVYYCAAVYVRGDRYDYWGQGTQVTVSS | high polyreactivity
17 | QVQLVESGGGLVQAGGSLRLSCAASGFSFLQYVMGWYSQAPGKERELFAAITSGGSTYYADSVKGRFTISRDNAKNTVYLQMNSLKPDDTAVYYCATDVADNTFYALYGSDYWGQCTQVTVSS | low polyreactivity
18 | QVHLVESGGGLVQAGGSLRLSCAASGFIFLHYAMGWYRQAPGKERELVAAINKSGGSTYYADSVKGRFTSSRDNAMYTDYLQMNSLKPEDTAVYYCNAVYYWFIGDYWGQGTQVTVSS | high polyreactivity
19 | QVQLVESGGGLVQAGGSLRLSCAASGSHFSSYVMGGYRQGPGKERELVAAISSIGGSTYYADSVKGRFTISRDNAKNTVYLQMNSLKPEDTAVYYCAAEPPGSTYEGGYWGQGTQVTVSS | low polyreactivity
20 | QVQLVESGGGLVQAGGSLRLSCADSGSTFRRNVMGWYRQAPGKERELVASIRSGGTTNYADSVKGRFTISRDNAKNTVYLQMNSLKPEDTAVYYCAAARSRGYYRASAVVLYGYWGQGTQVTVSS | high polyreactivity
21 | QVQLVESGGGLVQAGGSLRLSCAASGRILYRYAMGWSRQAAGTEREVVAAISRSGGDTYYADSVKGRFTISRDNAKNTVYLQMNSLKPEDTAVYYCAGYSSWSGGLGGVYYWGQGTQVTVSS | low polyreactivity
22 | QVQLVESGGGLVQAGGSLRLSCAASGSIFGTYAMGWYRQAPGKEREFVADISGIGTSTYYADSVKGRFTISRDNAKNTVYLQMNSLKPEDTAVYYCAACYPPLRGYYYWGQGTQVTVSS | low polyreactivity

Row | Sequence | polyreactivity (PSR sort gate)
23 | QVHLVESGGGLVQAGGSLRLSCAASGFTIDYYAMAWYRQAPGKERELDAAISRAGSTNYADSVKGRFTISRDNAKNTVYLQMNSLKPEDTAVYYCNKGYHSWSRLSQFGWSYDYWGQGTQVTVSS | high polyreactivity
24 | QVQLVESGGGLVQAGGSLRLSCAASGSTFRYYAMGWYRQAPGKERDLVAAINRSGGSTYYADSVKGRFTISRDIAKNTVYLQMNSLKPEDTAVYYCGAPWGRHYTNPDDYWGQGTQVTVSS | high polyreactivity
25 | QVQLVESGGGLVQAGGSLRLSCAASGSTFLYYTMGWYRQAPGKERELVAAITSGGDSNYADSVKGRFTISRDNAKNTVYLQMNSLKPEDTAVYYCNAEYTWSGTKIYTYKYDYWGQGTQVTVSS | low polyreactivity
26 | QVQLVESGGGLVQAGGSLRLSCAASGSIFPYNVMGWYRQTPGKERELVADIRSDGSTTYADSVKGRFTISRDNAKNTVYLQMNSLKPEDTAVYDCAAVWTYLYSYSLWLEYDYWGQGTQVTVSS | low polyreactivity
27 | QVQLVESGGGLVQAGGSLRLSCAASGSTCYSNAMGWYRQAPGNERELVAGISGSGGSTYYADSVKGRFTISRDNAKNTVYLHMNSLKPEDTAVYYCNARKTRSYFRFDSWGQGTQVTVSS | low polyreactivity
28 | QVQLVESGGGSVQAGGSLRLSCAASGSTIRYYAMGWYRQAPGKERELVARITSRAGRTYYADSVKGRFTISRDNAKNTVYLQMNSLKPEDTAVYYCNTRDFSGYVHALSLYDYWGQGTQVTVSS | high polyreactivity
29 | QVQLEDSGGGLDQAGVSLRLSCAASGSTFLLYAMVGYRQAPGKERELVAAISRSSTSTYYADSVKGRFTISRDNAKNTVYLQMNSLKPEDTAVYYCAAVVTVQYSQPYDHWGQGTQVTVSS | high polyreactivity
30 | QVQLVESGGGLVQAGGSLRLSCAASGGTFSRYAMGWYRQAPGKERELVAAITRSGASTFYADSVKGRFTISRDNAKNTVYLQMNSLKPEDTAVYYCAADTYVYNEYDYWGQGTQVTVSS | high polyreactivity
31 | QVQLVESGGGLVQAGGSLRLSCAASGSTFRFYAMGWYRQAPGKERELVAVISFNDGSTYYADSVKGRFTISRDNAKNTVYLQMNSLKPEDTAVYYCATDELDSWWYEYEYWGQGTQVTVSS | low polyreactivity
32 | QVQLVESGGGLVQAGGSLRLSCAASGSIFYKYVMGWYRQAPGKERELVAAISRGGGSTYYADSVKGRFTISRDNAKNSVYLQMNSLKPEDTAVYYCNAVGRPRYGHGFDHWGQGTQETVSS | high polyreactivity
33 | QVQLVESGGGLVQAGGSLRLSCAASGRIIRYYAMGWYRQAPGKERELVAAISKSGGSTYYADSVKGRFTISRDNAKNTVYLQMNSMKREDTAVFFCAAGTSRYVYHSYGKYEYWGQGTQVTVSS | high polyreactivity
34 | QVQLVESGGGLVQAGGSLRLSCAASGRTFRYYAMGWYRQAPGKERELVASISRRGGSTHYADSVKVRFTISRDNAKNTVYLQMNSLKPEDTAVYYCAAYGYYTKVTKYDYWGQGTQVTVSS | high polyreactivity
35 | QVQLVESGGGLVQAGGSLRLSCAASGITFGYYAMGWYRQAPGKERELVAAISSGGRTYYADSVKGRFTIARDNAKNTVYLQMNSLKPEDTGVYYCAVVARHPSRMDYWGQGTQVTVSS | high polyreactivity
36 | QVQLVESGGGLVQAGGSLRLSCAASGFTFYSNAMGWYRQAPGKERELVAAINWGGGSTYYADSVKGRFTISRDNAKNTVYLQMNSLKPEDTAVYYCAAEPIWEYWNGVSYAYDYWGQGTQVTVSS | low polyreactivity
37 | QVQLVESGGGLVQAGGSLRLSCAASGSTLSYYAMGWYRQAPGKEREWVAAISLSVGSTYYADSVKGRFTISRDNAKNTVYLQMNSLKPEETAVYYCAADDFYSGPFRGDYWGQGTQVTVSS | low polyreactivity
38 | QVQLVESGGGLVQAGGSLRLSCAASGSIFGGYAMGWYRQAPGKERELVAAISFSGGSTYYADSVKGRFTISRDNAKNTVYSQMNSLKPEDTAVYYCAADPYYSYLFDYWGQGTQVTVSS | low polyreactivity
39 | QVQLVESGGGLVQAGGSLGLSCAASGLTFSRYAMGWYREAPGKEWELVASISQGGGSTYYADSVKGRFTISRDNPKKTVYLQMNSLKPEDTAVYYCIRLTIGSSSYDYWGQGTKVTVSS | high polyreactivity
40 | QVQLVDSAVGLVQAGGSLRLSCPASGSIISFYTMGWYRQAPGKERDLVASSTTYADSVKGRFTISRDNAKNTVYLQMNSLKPEVTAVYYCATRHPARRDYWGQGTQVTVSS | low polyreactivity
41 | QVQLVESGGGLVQAGGSLRLSCAASGSTFYLNVMGWYRQAPGKERELVAAISSSGGSTYYADSVKGRFTISRDNAKNTVYLQMNSLKPEDTAVYYCNKVSAFPHYSGYDYWGQGTQVTVSS | low polyreactivity
42 | QVQLVESGGGLVQAGGSLRLSCAASGIIFYYYAMGWYRQAPGKERELVAAISRSGGITYYPDSVKGRFTISRDNAKNTEYFQMNSLKAEDTAVYYGNALRLVYYHPEDDYWGQGPQVTVSS | high polyreactivity
43 | QVQLVESGGGIVQAGGSLRLSCAASGSTFVDNAMGWYRQAPGKERELVAAITTSVGSTYYADSVKGRFTISRDNAKNTVYLQMNSLKPEDTAVYYCAATVFSTYPYGYGSTFVRDDYWGQGTQVTVSS | low polyreactivity
